From the supplement of paper PMC11908140

B1: library; numbered along this chain (parent)
chain: MRKPRAAVGSGHRKQAASQEGRQKHAKNNSQAKPSACDGLARQPEEVVLQASVSSYHLFRDVAEVTAFRGSLLSWYDQEKRDLPWRRRAEDEMDLDRRAYAVWVSEVMLQQTQVATVINYYTGWMQKWPTLQDLASASLEEVNQLWAGLGYYSRGRRLQEGARKVVEELGGHMPRTAETLQQLLPGVGRYTAGAIASIAFGQATGVVDGNVARVLCRVRAIGADPSSTLVSQQLWGLAQQLVDPARPGDFNQAAMELGATVCTPQRPLCSQCPVESLCRARQRVEQEQLLASGSLSGSPDVEECAPNTGQCHLCLPPSEPWDQTLGVVNFPRKASRKPPREESSATCVLEQPGALGAQILLVQRPNSGLLAGLWEFPSVTWEPSEQLQRKALLQELQRWAGPLPATHLRHLGEVVHTFSHIKLTYQVYGLALEGQTPVTTVPPGARWLTQEEFHTAAVSTAMKKVFRVYQGQQPGTCMGSKRSQVSSPCSRKKPRMGQQVLDNFFRSHISTDAHSLNSAAQ

Variants of: B1
Assay: 8OG:A repair function score (normalized; synonymous = 0, nonsense = -1) (normalized log-likelihood score); higher = more repair activity (WT-like)
Settings: with 8OG:A DNA repair reporter (GFP) in HEK-293 MUTYH KO cells
Method: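 Saturation mutagenesis (NNN codon scan) of the MUTYH cDNA (521-aa nuclear isoform NM_001048174.1 / NP_001041639), stably expressed under doxycycline induction in HEK-293 MUTYH knockout cells. Cells were co-transfected with an 8OG:A-bearing GFP repair reporter plus mCherry and sorted 72 h later into GFP+ and GFP− bins, three replicates per tile. The Rosace log2 enrichment (GFP+ vs GFP−) was converted per tile to a normalized function score with synonymous variants centered at 0 and nonsense variants (codons 1-471) at -1; low-abundance variants were removed.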

Compared with MRKPRAAVGSGHRKQAASQEGRQKHAKNNSQAKPSACDGLARQPEEVVLQASVSSYHLFRDVAEVTAFRGSLLSWYDQEKRDLPWRRRAEDEMDLDRRAYAVWVSEVMLQQTQVATVINYYTGWMQKWPTLQDLASASLEEVNQLWAGLGYYSRGRRLQEGARKVVEELGGHMPRTAECLQQLLPGVGRYTAGAIASIAFGQATGVVDGNVARVLCRVRAIGADPSSTLVSQQLWGLAQQLVDPARPGDFNQAAMELGATVCTPQRPLCSQCPVESLCRARQRVEQEQLLASGSLSGSPDVEECAPNTGQCHLCLPPSEPWDQTLGVVNFPRKASRKPPREESSATCVLEQPGALGAQILLVQRPNSGLLAGLWEFPSVTWEPSEQLQRKALLQELQRWAGPLPATHLRHLGEVVHTFSHIKLTYQVYGLALEGQTPVTTVPPGARWLTQEEFHTAAVSTAMKKVFRVYQGQQPGTCMGSKRSQVSSPCSRKKPRMGQQVLDNFFRSHISTDAHSLNSAAQ [T179C], MRKPRAAVGSGHRKQAASQEGRQKHAKNNSQAKPSACDGLARQPEEVVLQASVSSYHLFRDVAEVTAFRGSLLSWYDQEKRDLPWRRRAEDEMDLDRRAYAVWVSEVMLQQTQVATVINYYTGWMQKWPTLQDLASASLEEVNQLWAGLGYYSRGRRLQEGARKVVEELGGHMPRTAEGLQQLLPGVGRYTAGAIASIAFGQATGVVDGNVARVLCRVRAIGADPSSTLVSQQLWGLAQQLVDPARPGDFNQAAMELGATVCTPQRPLCSQCPVESLCRARQRVEQEQLLASGSLSGSPDVEECAPNTGQCHLCLPPSEPWDQTLGVVNFPRKASRKPPREESSATCVLEQPGALGAQILLVQRPNSGLLAGLWEFPSVTWEPSEQLQRKALLQELQRWAGPLPATHLRHLGEVVHTFSHIKLTYQVYGLALEGQTPVTTVPPGARWLTQEEFHTAAVSTAMKKVFRVYQGQQPGTCMGSKRSQVSSPCSRKKPRMGQQVLDNFFRSHISTDAHSLNSAAQ [T179G] is higher in “8OG:A repair function score” value: -0.0042 for the first, 0.108 for the second.

First: MRKPRAAVGSGHRKQAASQEGRQKHAKNNSQAKPSACDGLARQPEEVVLQASVSSYHLFRDVAEVTAFRGSLLSWYDQEKRDLPWRRRAEDEMDLDRRAYAVWVSEVMLQQTQVATVINYYTGWMQKWPTLQDLASASLEEVNQLWAGLGYYSRGRRLQEGARKVVEELGGHMPRTAEELQQLLPGVGRYTAGAIASIAFGQATGVVDGNVARVLCRVRAIGADPSSTLVSQQLWGLAQQLVDPARPGDFNQAAMELGATVCTPQRPLCSQCPVESLCRARQRVEQEQLLASGSLSGSPDVEECAPNTGQCHLCLPPSEPWDQTLGVVNFPRKASRKPPREESSATCVLEQPGALGAQILLVQRPNSGLLAGLWEFPSVTWEPSEQLQRKALLQELQRWAGPLPATHLRHLGEVVHTFSHIKLTYQVYGLALEGQTPVTTVPPGARWLTQEEFHTAAVSTAMKKVFRVYQGQQPGTCMGSKRSQVSSPCSRKKPRMGQQVLDNFFRSHISTDAHSLNSAAQ [T179E]
Second: MRKPRAAVGSGHRKQAASQEGRQKHAKNNSQAKPSACDGLARQPEEVVLQASVSSYHLFRDVAEVTAFRGSLLSWYDQEKRDLPWRRRAEDEMDLDRRAYAVWVSEVMLQQTQVATVINYYTGWMQKWPTLQDLASASLEEVNQLWAGLGYYSRGRRLQEGARKVVEELGGHMPRTAEDLQQLLPGVGRYTAGAIASIAFGQATGVVDGNVARVLCRVRAIGADPSSTLVSQQLWGLAQQLVDPARPGDFNQAAMELGATVCTPQRPLCSQCPVESLCRARQRVEQEQLLASGSLSGSPDVEECAPNTGQCHLCLPPSEPWDQTLGVVNFPRKASRKPPREESSATCVLEQPGALGAQILLVQRPNSGLLAGLWEFPSVTWEPSEQLQRKALLQELQRWAGPLPATHLRHLGEVVHTFSHIKLTYQVYGLALEGQTPVTTVPPGARWLTQEEFHTAAVSTAMKKVFRVYQGQQPGTCMGSKRSQVSSPCSRKKPRMGQQVLDNFFRSHISTDAHSLNSAAQ [T179D]
The “8OG:A repair function score” value of the first is lower: -0.0168 for the first, 0.248 for the second.

First: MRKPRAAVGSGHRKQAASQEGRQKHAKNNSQAKPSACDGLARQPEEVVLQASVSSYHLFRDVAEVTAFRGSLLSWYDQEKRDLPWRRRAEDEMDLDRRAYAVWVSEVMLQQTQVATVINYYTGWMQKWPTLQDLASASLEEVNQLWAGLGYYSRGRRLQEGARKVVEELGGHMPRTAEFLQQLLPGVGRYTAGAIASIAFGQATGVVDGNVARVLCRVRAIGADPSSTLVSQQLWGLAQQLVDPARPGDFNQAAMELGATVCTPQRPLCSQCPVESLCRARQRVEQEQLLASGSLSGSPDVEECAPNTGQCHLCLPPSEPWDQTLGVVNFPRKASRKPPREESSATCVLEQPGALGAQILLVQRPNSGLLAGLWEFPSVTWEPSEQLQRKALLQELQRWAGPLPATHLRHLGEVVHTFSHIKLTYQVYGLALEGQTPVTTVPPGARWLTQEEFHTAAVSTAMKKVFRVYQGQQPGTCMGSKRSQVSSPCSRKKPRMGQQVLDNFFRSHISTDAHSLNSAAQ [T179F]
Second: MRKPRAAVGSGHRKQAASQEGRQKHAKNNSQAKPSACDGLARQPEEVVLQASVSSYHLFRDVAEVTAFRGSLLSWYDQEKRDLPWRRRAEDEMDLDRRAYAVWVSEVMLQQTQVATVINYYTGWMQKWPTLQDLASASLEEVNQLWAGLGYYSRGRRLQEGARKVVEELGGHMPRTAEALQQLLPGVGRYTAGAIASIAFGQATGVVDGNVARVLCRVRAIGADPSSTLVSQQLWGLAQQLVDPARPGDFNQAAMELGATVCTPQRPLCSQCPVESLCRARQRVEQEQLLASGSLSGSPDVEECAPNTGQCHLCLPPSEPWDQTLGVVNFPRKASRKPPREESSATCVLEQPGALGAQILLVQRPNSGLLAGLWEFPSVTWEPSEQLQRKALLQELQRWAGPLPATHLRHLGEVVHTFSHIKLTYQVYGLALEGQTPVTTVPPGARWLTQEEFHTAAVSTAMKKVFRVYQGQQPGTCMGSKRSQVSSPCSRKKPRMGQQVLDNFFRSHISTDAHSLNSAAQ [T179A]
The “8OG:A repair function score” value of the first is lower: -0.0885 for the first, -0.088 for the second.
